Residue numbers refer to the chain shown, from its start. Names and notes keep the numbering of the source. Values joined by “and” are separate entries in the source; they are usually repeats but may differ in a detail not shown here. Equal values may be shown once.
B1: KB001 parental mouse Fab FASEBA variant VH S65H (Fab, V domains shown)
VH: EVQLKQSGPGLVAPSQSLSITCTVSGFSLSIYSVHWVRQPPGKGLEWLGMIWGGGSSDYNSALKHRLSISKDNSKSQVFLKMNSLQTDDTAMYYCARNGNFYAMDYWGQGTSVTVSS
VL: QIVLTQSPAIMSASLGERVTMTCTASSSVSSSFLHWYQQKPGSSPQLWIYSTSNLASGVPARFSGSGSGTSYSLTISSMEAEDAATYYCHQYHHSPYIYTFGGGTKLEIK
B2: KB001 parental mouse Fab FASEBA variant VH S65L (Fab, V domains shown)
VH: B1 VH with H65L
VL: B1 VL
B3: KB001 parental mouse Fab FASEBA variant VH N100P (Fab, V domains shown)
VH: B1 VH with H65S, N100P
VL: B1 VL
B4: KB001 parental mouse Fab FASEBA variant VH S65G (Fab, V domains shown)
VH: B1 VH with H65G
VL: B1 VL
B5: KB001 parental mouse Fab FASEBA variant VH G99A (Fab, V domains shown)
VH: B1 VH with H65S, G99A
VL: B1 VL
B6: KB001 parental mouse Fab FASEBA variant VH S65T (Fab, V domains shown)
VH: B1 VH with H65T
VL: B1 VL
B7: KB001 parental mouse Fab FASEBA variant VH S65F (Fab, V domains shown)
VH: B1 VH with H65F
VL: B1 VL
B8: KB001 parental mouse Fab FASEBA variant VH G99N (Fab, V domains shown)
VH: B1 VH with H65S, G99N
VL: B1 VL
B9: KB001 parental mouse Fab FASEBA variant VH S65R (Fab, V domains shown)
VH: B1 VH with H65R
VL: B1 VL
B10: KB001 parental mouse Fab FASEBA variant VH S65Y (Fab, V domains shown)
VH: B1 VH with H65Y
VL: B1 VL
B11: KB001 parental mouse Fab FASEBA variant VH G99S (Fab, V domains shown)
VH: B1 VH with H65S, G99S
VL: B1 VL
B12: KB001 parental mouse Fab FASEBA variant VH G99C (Fab, V domains shown)
VH: B1 VH with H65S, G99C
VL: B1 VL
B13: KB001 parental mouse Fab FASEBA variant VH G99Y (Fab, V domains shown)
VH: B1 VH with H65S, G99Y
VL: B1 VL
B14: KB001 parental mouse Fab FASEBA variant VH G99F (Fab, V domains shown)
VH: B1 VH with H65S, G99F
VL: B1 VL
B15: KB001 parental mouse Fab FASEBA variant VH N100I (Fab, V domains shown)
VH: B1 VH with H65S, N100I
VL: B1 VL
B16: KB001 parental mouse Fab FASEBA variant VH S65P (Fab, V domains shown)
VH: B1 VH with H65P
VL: B1 VL

Each binder was assayed against HRgpA-6H (Porphyromonas gingivalis) (UniProt P28784) (assay: ELISA, FASEBA screening, coated HRgpA-6H 0.0625 ug/ml).
Sequence of UniProt P28784 (P28784 228-860): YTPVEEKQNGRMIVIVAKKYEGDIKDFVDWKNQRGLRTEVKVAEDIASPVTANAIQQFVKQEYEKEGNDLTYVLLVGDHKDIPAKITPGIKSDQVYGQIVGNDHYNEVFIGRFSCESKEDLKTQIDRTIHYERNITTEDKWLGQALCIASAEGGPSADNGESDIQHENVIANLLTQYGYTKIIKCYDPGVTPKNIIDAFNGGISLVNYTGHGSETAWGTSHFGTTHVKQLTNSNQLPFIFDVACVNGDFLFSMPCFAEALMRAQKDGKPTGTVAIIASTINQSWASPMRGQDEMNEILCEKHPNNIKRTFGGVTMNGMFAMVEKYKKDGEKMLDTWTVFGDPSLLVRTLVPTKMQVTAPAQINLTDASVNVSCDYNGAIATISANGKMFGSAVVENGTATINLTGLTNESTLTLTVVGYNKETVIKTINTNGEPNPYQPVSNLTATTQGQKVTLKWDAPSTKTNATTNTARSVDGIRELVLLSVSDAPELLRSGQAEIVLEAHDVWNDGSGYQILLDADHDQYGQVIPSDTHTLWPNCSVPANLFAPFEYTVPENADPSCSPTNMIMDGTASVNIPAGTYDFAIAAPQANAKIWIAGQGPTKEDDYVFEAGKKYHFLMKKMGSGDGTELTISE

| Binder | OD450 nm |
| --- | --- |
| B1 | 0.823 and 0.767 |
| B2 | 0.728 |
| B3 | 0.757 |
| B4 | 0.825 |
| B5 | 0.74 |
| B6 | 0.759 |
| B7 | 0.74 |
| B8 | 0.639 and 0.698 |
| B9 | 0.794 |
| B10 | 0.724 |
| B11 | 0.769 and 0.739 and 0.77 |
| B12 | 0.776 |
| B13 | 0.769 |
| B14 | 0.771 |
| B15 | 0.796 and 0.833 |
| B16 | 0.814 |

Each binder was assayed against HRgpA-6H (Porphyromonas gingivalis) (UniProt P28784) (assay: ELISA, FASEBA screening, coated HRgpA-6H; variant OD over parental WT Fab OD).

| Binder | Ratio OD(Variant)/OD(WT) |
| --- | --- |
| B1 | 0.995 and 0.927 |
| B2 | 0.88 |
| B3 | 0.894 |
| B4 | 0.998 |
| B5 | 0.928 |
| B6 | 0.918 |
| B7 | 0.895 |
| B8 | 0.802 and 0.876 |
| B9 | 0.96 |
| B10 | 0.875 |
| B11 | 0.965 and 0.927 and 0.966 |
| B12 | 0.974 |
| B13 | 0.965 |
| B14 | 0.967 |
| B15 | 0.94 and 0.983 |
| B16 | 0.984 |

Reference: patent US20240400654A1
